Assay results from patent US20220259298A1 (KYOTO UNIVERSITY, published 2022).
Where a chain is given by its changes, count along the chain named. Read-outs that look alike come from different tables or passages of the source.

Assays:
[1] = target: T1, N-terminal PA-tagged mouse USAG-1 (WISE) recombinant protein (mouse, UniProt Q9CQN4 24-206); test: cell-based or functional assay
T1 sequence (looked up): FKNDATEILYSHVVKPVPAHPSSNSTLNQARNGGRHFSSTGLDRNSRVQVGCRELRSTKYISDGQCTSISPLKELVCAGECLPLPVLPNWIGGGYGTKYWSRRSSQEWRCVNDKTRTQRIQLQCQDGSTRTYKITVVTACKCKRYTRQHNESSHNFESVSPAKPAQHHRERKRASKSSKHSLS

[2] = target: T1, N-terminal PA-tagged mouse USAG-1 …; test: BLI (Octet), antibody immobilized on the biosensor, mouse USAG-1 at 10, 30, 100 nM, global fitting
Protocol: For 8 out of the 9 antibodies grouped in Example 8, affinities (KD values) were determined by using the same Octet-based BLI method as in Example 8. […] The affinities were calculated by subjecting the obtained curves to global fitting with an analysis program attached to the Octet device.

[3] = target: T2, human FLAG-tagged USAG-1 transiently forcibly expressed in HEK293 cells (human, UniProt Q6X4U4 24-206); test: immunostaining of HEK293 cells transiently expressing human FLAG-tagged USAG-1
T2 construct: whole, on cells; Immunostaining of transfected cells; not shown: FLAG tag
T2 sequence (looked up): T1 sequence (looked up) with S39N, S46T, V159M, A165V, L182M

human USAG-1 protein [4] = target: T3, human USAG-1 protein (human, UniProt Q6X4U4 24-206); test: solid-phase ELISA of the hybridoma clone on the immunizing antigen (E. coli-derived human USAG-1, R & D systems), paragraph 134
T3 construct: mature
T3 sequence (looked up): T1 sequence (looked up) with S39N, S46T, V159M, A165V, L182M

[5] = target: T4, 15 amino acid peptide for epitope mapping QEWRCVNDKTRTQRI (SEQ ID NO: 32) (human); test: peptide array on cellulose membrane, HRP-conjugated anti-mouse antibody, ECL
T4 peptide: QEWRCVNDKTRTQRI
Protocol: (§1) Briefly, 169 overlapping peptides of 15 amino acids were synthesized based on a human USAG-1 protein sequence (183 amino acid length) excluding a signal peptide by shifting the 15 amino acid sequence from the beginning by one amino acid to prepare a peptide library. The 169 kinds of peptides were bound onto a cellulose membrane to prepare a peptide array. […] After washing, an HRP-conjugated anti-mouse antibody (1/25000 dilution) was added as a secondary antibody, and ECL solution was used for color development.

[6] = target: T5, 15 amino acid peptide for epitope mapping EWRCVNDKTRTQRIQ (SEQ ID NO: 33) (human); test: as above
T5 peptide: EWRCVNDKTRTQRIQ
Protocol: as §1

[7] = target: T6, 15 amino acid peptide for epitope mapping WRCVNDKTRTQRIQL (SEQ ID NO: 34) (human); test: as above
T6 peptide: WRCVNDKTRTQRIQL
Protocol: as §1

[8] = target: T7, 15 amino acid peptide for epitope mapping RCVNDKTRTQRIQLQ (SEQ ID NO: 35) (human); test: as above
T7 peptide: RCVNDKTRTQRIQLQ
Protocol: as §1

[9] = target: T8, 15 amino acid peptide for epitope mapping CVNDKTRTQRIQLQC (SEQ ID NO: 36) (human); test: as above
T8 peptide: CVNDKTRTQRIQLQC
Protocol: as §1

[10] = target: T9, 15 amino acid peptide for epitope mapping VNDKTRTQRIQLQCQ (SEQ ID NO: 37) (human); test: as above
T9 peptide: VNDKTRTQRIQLQCQ
Protocol: as §1

human USAG-1 protein [11] = target: T3, human USAG-1 protein; test: solid-phase ELISA of the hybridoma clone on the immunizing antigen (E. coli-derived human USAG-1, R & D systems), paragraph 134; remark: listed apart in the source

B1: mouse anti-USAG-1 neutralizing antibody C (B14) (antibody, V domains shown)
VH: EVQLQQSGPELVKPGASVKISCKASGYSFTGYYMNWVKQSPEKSLEWIGEINPTTGGTTYNQKFKAKATLTVDKSSSTAYMQLKSLTSEDSAVYYCARLHYDYDGVGYAMDYWGQGTSVTVSS
VL: DIVMTQSHKFMSTSVGDRVSITCKASQDVSTAVAWYQQKPGQSPKLLIYSASYRYTGVPARFTGSGSGTDFTFTISSVQAEDLAVYYCQQHYSTPPTFGGGTKLEIKR
notes: Raised against baculovirus-derived rat USAG-1
For B1, the “EC50 against the BMP signaling inhibition by USAG-1 (BMP ALP assay, C2C12 cells, BMP7)” value [1] was 0.298 µg/mL, the “EC50 against the Wnt signaling inhibition by USAG-1 (WNT reporter assay, luciferase)” value [1] was 4.73 µg/mL and the Kd [2] was 4.21 nM.

B2: mouse anti-USAG-1 neutralizing antibody B (E57) (antibody, mouse IgG1, kappa, V domains shown)
VH: EVQLQQSGPELVKPGASVKISCKTSGYSFTGYYMSWVKQSPEKSLEWIGEINPTTGGSTYNQKFKAKATLTVDKSSSTAYMQLKSLTSEDSAVYYCAREGYYSGISYDAMDYWGQGTSVTVSS
VL: DIQMTQTTSSLSASLGDRVTISCRASQDISNYLSWYQQKPDGTVKLLIYYTSRLHSGVPSRFSGSGSGTDYSLTISNLEQEDIATYFCQQGNTLPRTFGGGTKLEIKR
B2 was tested, and the binding result [3] was “binds”, the Kd [2] was 2.44 nM and the binding result (human USAG-1 protein [4]) was “binds”.

B3: mouse anti-USAG-1 neutralizing antibody A (E37) (antibody, mouse IgG1, kappa, V domains shown)
VH: QVQLQQSDAELVNPGASVKISCKVSGYTFTDHTIHWMKQRPEQGLEWIGYIYPGDGSTKYNEKFKGKATLTADKSSSTAYMQLNSLTSEDSAVYFCARTETYYGRIYYYAMDYWGQGTSVTVSS
VL: QIVLSQSPAILSASPGEKVTMTCRASSSVSYMYWYQQKPGSSPKPWIYATSNLASGVPIRFSGSGSGTSYSLTISRVEAEDAATYYCQQWSSNLTFGAGTKLELKR
B3: binds [5]; binds [6]; binds [7]. B3: binds [8]; binds [9]; binds [10]. The binding result [3] was “binds”, the Kd [2] was 2.43 nM and the binding result (human USAG-1 protein [11]) was “binds”.

B4: mouse anti-USAG-1 neutralizing antibody E (B103) (antibody, mouse IgG1, kappa, V domains shown)
VH: DVQLQESGPGLVKPSQSLSLTCSVTGYSITSGYYWNWIRQFPGNKLEWMGCISYDGSNNYNPSLKNRISITRDTSKNQFFLKLNSVTTEDTATYYCARGGLLWGQGTTLTVSS
VL: DIQMTQSPSSLSASLGERVSLTCRASQEISGYLSWLQQKPDGNIKRLIYAASTLDSGVPKRFSGSRSGSDYSLTISRLESEDFADYYCLQYASYPWTFGGGTKLEIKR
notes: as for B1
In the case of B4, the Kd [2] is reported as 4.97 nM.
